# Earlier results as cited in publication PMC7911750.
# Target: NKp30-Ig ECD (Homo sapiens) (UniProt O14931)
# UniProt O14931, sequence (O14931 19-135): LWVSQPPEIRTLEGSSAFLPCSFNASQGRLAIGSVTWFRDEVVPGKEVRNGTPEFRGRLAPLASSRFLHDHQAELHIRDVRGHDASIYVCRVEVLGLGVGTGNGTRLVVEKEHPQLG
substance,measurement,value
pp65 (from UniProt P06725),Kd,10 nM
